Measurements reported in the DeepSol protein solubility set.

Experiment: soluble on expression in E. coli; label from the status in PepcDB or PDB records

Sequence | soluble on expression in E. coli
MTYELAIGDRAYSSWSLRGWLLFDAFGLPVRVRRARLYTDELPALLADFAPARTVPAMKTSAGTVVAESLAIAEELASRHPEAGIWPADPEHRAVARALAAEMHAGFGALRSHCPMNLRVSYEGCDPPEAVQADLARLERIWAEARARCSTEGPWLCGSYSAADVFFAPVAARIAGYGLAVSPEAQAYVAAHLAHPSFRRWRAMGAVDGADQEFYARPYPPRPWPGPAPLPARAVADGVAENDACPYSGAPVTDLLEIEGRIFGFCNPFCRDKTVADPEAWPAFTALLRHREGS | not soluble
SMGAGGGGSAEQLDALVKKDKVVVFLKGTPEQPQCGFSNAVVQILRLHGVRDYAAYNVLDDPELRQGIKDYSNWPTIPQVYLNGEFVGGCDILLQMHQNGDLVEELKKLGIHSALLDE | soluble
ATCYCRTGRCATRESLSGVCEISGRLYRLCCR | soluble
MPIHHAIVHLIEKKPDGTPAVLHARDAELGDSQAIENLLADLNESYNAKNKAWGFFQGESGAYPFSGWLGEYLEGDRDFVGFSREAVEHLQKLMEESNLSTGGHILFAHYQQGMTDYLAIALLHHSEGVAVNESLEVTPSRHLDLGQLHLAARINISEWRNNKQSKQYISFIKGKGGKKVSDYFRDFIGCQEGVDSPSETRTLLKAFSDFVESEDMAEEQAREKTETLVDYATSQARIGEPMTLDALSELMDDQQPRAFYDYIRNKDYGLSPEIPADKRTLNQFRRFTGRAEGLSISFEAHLLGSKVEYDEERDMLIIRQLPTQLKDQLKRRKDLEHHHHHH | not soluble
MGQELNKIGIEVLRIVSIRDREEEIMEAVDNAMKRVNIVLVTGGLGPTKDDITKQTLCKYFHTELIFSEEVFENVKRVLAGKIPMNALNKSQAMVPKDCTVINNPVGSASVSWFEKDNKVLVSMPGVPQEMTAVMTESVLPKLREKFQTDVIMHRTFLVQHYPESILAEKLEPWETALPESIKLAYLPKLGIIRLRLTGRGQNKIEVESALNDEQAKLEAILGDDIFSEEDIPLEVIVGELLKKKNLTVSTAESCTGGSIAARLTSIAGSSEYFNGGIVAYSNEVKMNLLHVSPETLEVYGAVSEQTVIEMVKGAMKALKTDCAVATSGIAGPGGGTPEKPVGTVWIAAGYKNEIRTYRQETNRGRAMNIERAGNNALLILRDLLK | not soluble
GPGSMMGTDTEKGLYLHAAWDLFERLRPGQQLCVSFFEIYCNSLYDLLNHRHPIVLREDANRRVNICGVTWRTVATVEELWQLVRSGMEQRRTGTTTANEHSSRSHAVLSLRITDSENPDFTGSVNFVDLAGSERAADTAAHDRLTRLEGAEINKSLLALKECIRALDEKKKHVPFRGSRLTEVLRASFTGNSKTVMIAAVSPSSVNHEHTSNTLRYAFRVKGLSVPSVWPSTARNAPRLCLPVARSRSRAAAAVAAANEPTSAPAATECSFNSKHTDDAGSPRRPRHARRRRHAYKTAHEPQDEIGISDTNESCTSDTATESPRPRMQITQKACRHQVGRNSTGSSTSAKRHKTCCLVPYMVESLSQRRTRHRTRKERLPLPRAACSIGESSDLLLANASGTDSKSRALAEVILPHVKGATRHPSSLIAVDVAALEQRLTLQIIAQLRLDLGQQLEEVLMEKDTIISALRSENEKLRQALDKTGNVEQFYGGSPCDGEVQKRPAVLPALLYPSSPSILQEQLSSGVSTASVGDEPPLRVLSE | not soluble
MKTLNRRDFPGAQYPERIIQFGEGNFLRAFVDWQIDLLNEHTDLNSGVVVVRPIETSFPPSLSTQDGLYTTIIRGLNEKGEAVSDARLIRSVNREISVYSEYDEFLKLAHNPEMRFVFSNTTEAGISYHAGDKFDDAPAVSYPAKLTRLLFERFSHFNGALDKGWIIIPCELIDYNGDALRELVLRYAQEWALPEAFIQWLDQANSFCSTLVDRIVTGYPRDEVAKLEEELGYHDGFLDTAEHFYLFVIQGPKSLATELRLDKYPLNVLIVDDIKPYKERKVAILNGAHTALVPVAFQAGLDTVGEAMNDAEICAFVEKAIYEEIIPVLDLPRDELESFASAVTGRFRNPYIKHQLLSIALNGMTKFRTRILPQLLAGQKANGTLPARLTFALAALIAFYRGERNGETYPVQDDAHWLERYQQLWSQHRDRVIGTQELVAIVLAEKDHWEQDLTQVPGLVEQVANDLDAILEKGMREAVRPLC | not soluble
RGIPQITGPTTVNGLERGSLTVQCVYRSGWETYLKWWCRGAIWRDCKILVKTSGSEQEVKRDRVSIKDNQKNRTFTVTMEDLMKTDADTYWCGIEKTGNDLGVTVQVTIDPAPVTQEETSSSPT | soluble
MANKGIVPVKISLTEGDFYTLWAPQWREHGAEWQAFLGSGDDLYVFESPAAVLAYIESGARHDLSDHPKWGAFMAGADDRVVPTDRQEYDLIGVPALLAERPSHTNVSAVARCFAITRSLGDVTATIPVQSFFSSHSILMNTERGGNHFTGDSGLGEWTGIGRIVLTSWNNVIDALDSAITVHTDGNAEAISAAAARIDAATAEAEQRRIAEEKKKKADAEKVDPYDATPWAAAGIDPIKISIDGRTVYTLRTYIEAQPVFLGKYGEIFTFNSGKSLVRWLVEHDDHDLARVSTWEDLMVPVNAGELDITVHPDNVYSFNGLTRDINTSVEAVDTAQMARAYELLADAADWAADDSLNSYFLTNPRMQDYISYMIGSTRVSGYTPTPPFTEHSESWAEMEKMLTKRFSKF | not soluble
MTENAPKFKQISAEIEKKIRDGLYVSAQKLPSEYDLAKEYNCSRLTIRKAIDDLIRKNILVKRHGKGSYVMSQAKIQSGRAGLQGFTEAAKAYGKKSQTEVISFEEVVHPAEKIREALQVGKNEAIYELIRRRMLDGEPMTVEKIYLPQAYVQGHTKQDFEGSLFCLIEKNVEIAYSHQEIEAILVEAEISELLNVPVGQPLLQVHSITYALDATPILYDVSLYRADRYTFKNTLTRYSPSENNQVELGGSWNE | not soluble
ERFQLLMTQIGLQDVTTYEEFTKDAKIEKLVADKKNKTWQFHLHVPQIFPAALFHMMDVGMKRAFSQIAETEMQIVPENQTINETLIQEYWNLIVEPIGKQSPMIGKLLMEQKPTFKEPHFIEVAVHNDMEEATIQQRFQAKIIEN | not soluble
MKFLPLLALLISPFVSALTLDDLQQRFTEQPVIRAHFDQTRTIKDLPQPLRSQGQMLIARDQGLLWDQTSPFPMQLLLDDKRMVQVINGQPPQIITAENNPQMFQFNHLLRALFQADRKVLEQNFRVEFADKGEGRWTLRLTPTTTPLDKIFNTIDLAGKTYLESIQLNDKQGDRTDIALTQHQLTPAQLTDDERQRFAAQ | not soluble
MSLEISKQTSDLLLSLEKKKGTLPKFSVLRSIPRNRIIYGAPGTGKSNYLEREVGKIFGDNPYVFTRVTFFPGYTYGQFIGAYKPVPIYKKLSGEEEIFSSNFRDKMENFEPMIDYQFVPGPFIDVLIKALKNRYTNFILIIEEINRANAASVFGDIFQLLDRNKNGESDYPVTFGPDIMNYLARNGIKDEMIKLPSNFFIWATMNNADQGVLPLDTAFKRRWSFEYLELEKYRKAVDSWKLSLRYKGHNKVIMWNDFRDIINKRLKGKVPEDKLLGPFFLKESELWNQNVFKNKLLYYLKEDVFKHNPTIDFLNASTFSELIEKYDGSDNIFTFDIDDSSFVSDEGGSHHHHHH | soluble
MKQKIWYTYDDIHRVIKALAEKIRNADIKYDAMIAIGGGGFIPARMLRCFLEIPIYAVTTAYYDSDNEGQVTEEVKKVQWLDPVPEALRGKNVLVVDEVDDSRVTMEFCLKELLKEDFGTIGVAVLHEKIKAKAGKIPEGIPYFSGITVEDWWINYPWDALDIDEHNRLAEAGRG | not soluble
MKDCSNGCSAECTGEGGSKEVVGTFKAKDLIVTPATILKEKPDPNNLVFGTVFTDHMLTVEWSSEFGWEKPHIKPLQNLSLHPGSSALHYAVELFEGLKAFRGVDNKIRLFQPNLNMDRMYRSAVRATLPVFDKEELLECIQQLVKLDQEWVPYSTSASLYIRPTFIGTEPSLGVKKPTKALLFVLLSPVGPYFSSGTFNPVSLWANPKYVRAWKGGTGDCKMGGNYGSSLFAQCEAVDNGCQQVLWLYGEDHQITEVGTMNLFLYWINEDGEEELATPPLDGIILPGVTRRCILDLAHQWGEFKVSERYLTMDDLTTALEGNRVREMFGSGTACVVCPVSDILYKGETIHIPTMENGPKLASRILSKLTDIQYGREERDWTIVLS | soluble
